Reference: patent US20230159643A1 (H LUNDBECK A S, published 2023)

T1: human wild type Sortilin on S18-HEK cells (human, UniProt Q99523 78-831)
T1 sequence: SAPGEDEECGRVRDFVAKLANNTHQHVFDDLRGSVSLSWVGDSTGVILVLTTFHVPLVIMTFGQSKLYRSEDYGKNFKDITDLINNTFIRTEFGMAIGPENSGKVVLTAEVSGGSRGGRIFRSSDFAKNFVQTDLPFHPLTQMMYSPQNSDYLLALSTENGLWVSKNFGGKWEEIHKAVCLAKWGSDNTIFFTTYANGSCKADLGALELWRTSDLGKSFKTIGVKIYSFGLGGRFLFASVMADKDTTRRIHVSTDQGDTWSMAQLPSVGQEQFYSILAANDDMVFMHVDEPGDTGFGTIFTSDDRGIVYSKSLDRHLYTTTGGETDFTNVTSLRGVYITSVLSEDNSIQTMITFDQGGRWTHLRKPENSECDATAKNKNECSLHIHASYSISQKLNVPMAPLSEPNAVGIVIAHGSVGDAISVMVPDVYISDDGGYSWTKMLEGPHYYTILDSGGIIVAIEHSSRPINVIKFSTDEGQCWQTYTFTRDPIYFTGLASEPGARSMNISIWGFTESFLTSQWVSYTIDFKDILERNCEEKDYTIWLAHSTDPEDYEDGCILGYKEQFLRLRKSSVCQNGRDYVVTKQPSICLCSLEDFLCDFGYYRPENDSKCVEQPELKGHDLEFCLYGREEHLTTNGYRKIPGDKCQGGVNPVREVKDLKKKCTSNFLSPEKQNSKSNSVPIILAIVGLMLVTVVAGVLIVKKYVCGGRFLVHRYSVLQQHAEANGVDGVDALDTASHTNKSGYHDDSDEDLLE

B1: 849 (antibody, V domains shown)
VH: EVQLLESGGGLVQPGGSLRLSCAASGFTFNTFAMNWVRQAPGKGLEWVSAISGSGGSTYYADSVKGRFTISRDNSKNTLYLQMNSLRAEDTAVYYCAALVRGVRDAFDIWGQGTMVTVSS
VL: not shown
B2: 924 (antibody, V domains shown)
VH: QVQLQESGPGLVKPSQTLSLTCTVSGGSISSGNYYWNWIRQHPGKGLEWIGYIYYSGSTYYNPSLKSRVTISVDTSKNQFSLKLNSVTSADTAVYYCAALITSQNFFFDYWGQGTLVTVSS
VL: not shown
B3: 1276 (antibody, V domains shown)
VH: EVQLLESGGGLVQPGGSLRLSCAASGFTFNTFAMNWVRQAPGKGLEWVSAITGSGGSTYYADSVKGRFTISRDNSKNTLYLQMNSLRAEDTAVYYCATPITVVRGVSAFDIWGQGTMVTVSS
VL: not shown
B4: 1289 (antibody, V domains shown)
VH: EVQLLESGGGLVQPGGSLRLSCAASGFTFSSFAMSWVRQAPGKGLEWVSAISGSGGSTYYADSVKGRFTISRDNSKNTLSLQMNSLRAEDTAVYYCATPITLVRGVGAFDIWGQGTMVTVSS
VL: not shown
B5: 044 (antibody, V domains shown)
VH: EVQLLESGGGLVQPGGSLRLSCAASGFTFSSYAMSWVRQAPGKGLEWVSAISGSGGNTYYADSVKGRSTISRDNSKNTLYLQMNSLRAEDTAVYYCASMVRGVFINFDYWGQGTLVTVSS
VL: not shown
B6: 093-01 (antibody, V domains shown)
VH: VVQLLESGGGLVQPGGSLRLSCAASGFTFSSYAMSWVRQAPGKGLEWVSAISGSGGSTYYADSVKGRFTISRDNSMHTLFLQINSLRAEDTAVYYCVAIAAAGTNYFDYWGQGTLVTVSS
VL: not shown
B7: 093-05 (antibody, V domains shown)
VH: VVQLLESGGGLVQPGGSLRLSCAASGFTFSSYAMSWVRQAPGKGLEWVSAISGSGGSTYYADSVKGRFTISRDNSMHTLFLQINSLRAEDTAVYYCVAIAAAGTNYFDYWGQGTLVTVSS
VL: not shown
B8: 531 (antibody, V domains shown)
VH: EVQLLESGGGLVQPGGSLRLSCAASGFTFSRYVMSWVRQAPGKGLEWVSTISGSGGSTYYADSVKGRFTISRDNSKNTLFLQMNSLRAEDTAVYYCAEGAFGAFDIWGQGTMVTVSS
VL: not shown
B9: 088 (antibody, V domains shown)
VH: EVQLLESGGGLVQPGGSLRLSCAASGFTFSTFAMSWVRQAPGKGLEWVSAISGSGGGTYYADSVKGRFTISRDNSKNTLYLQMNSLRAEDTAVYYCATYIVATIADAFDIWGQGTMVTVSS
VL: not shown
B10: 562 (antibody, V domains shown)
VH: EVQLLESGGGLVQPGGSLRLSCAASGFTFSTFAMSWVRQAPGKGLEWVSAISGSGGSTYYADSVKGRFTISRDNSENTLYLQMNSLRAEDTAVYYCASPITVVRGEAFDIWGQGTMVTVSS
VL: not shown
B11: 566 (antibody, V domains shown)
VH: EVQLLESGGGLVQPGGSLRLSCVASGFTFSTFAMSWVRQAPGKGLEWVSAISGSGGSTYYADSVRGRFTVSRDNSKNTLYLQMNSLRAEDTAVYYCASPITMVRGEAFDIWGQGTMVTVSS
VL: not shown

molecular target: T1, human wild type Sortilin on S18-HEK …; test: cell-based or functional assay

Point of comparison: B4, “extracellular PGRN in medium of Sortilin over-expressing HEK cells (ELISA), % of untreated control” value 117%. Against it:
- B1 — higher, 149%
- B2 — higher, 125%
- B3 — higher, 163%
- B5 — higher, 166%
- B6 — lower, 116%
- B7 — higher, 140%
- B8 — higher, 140%
- B9 — higher, 121%
- B10 — higher, 139%
- B11 — higher, 139%
